Test in all cases: cell-based or functional assay
The target of assay [1] is HIV-1 92RW020 envelope glycoprotein (Env), clade A pseudovirus (HIV-1).
In assay [2] the target is HIV-1 92TH021 envelope glycoprotein (Env), clade AE pseudovirus (HIV-1).
The target in assay [3] is HIV-1 92UG024 envelope glycoprotein (Env), clade D pseudovirus (HIV-1).
The target of assay [4] is HIV-1 JR-CSF Env K343A (HIV-1 isolate JR-CSF) (UniProt P20871).
Assay [5] addresses HIV-1 MGRM-AG-005 envelope glycoprotein (Env), clade AG pseudovirus (HIV-1).
In assay [6] the target is HIV-1 92RW020 Env (HIV-1 isolate 92RW020 (clade A)).
Assay [7] deals with HIV-1 APV17 Env (HIV-1 isolate APV17 (clade B)).
Assay [8] deals with HIV-1 JRCSF Env (HIV-1 isolate JRCSF (clade B)) (UniProt P20871).
Assay [9] deals with HIV-1 JRFL Env (HIV-1 isolate JRFL (clade B)).
Assay [10] has as its target HIV-1 Env of isolate MG RM-C-020 (HIV-1).
Assay [11] deals with HIV-1 envelope glycoprotein (Env) of isolate MG RM-A-008 (HIV-1).
The target of assay [12] is HIV-1 93IN905 envelope glycoprotein (Env) on virus (HIV-1, clade C, isolate 93IN905).
Assay [13] deals with HIV-1 APV6 envelope glycoprotein (Env) on virus (HIV-1, clade B, isolate APV6).
The target of assay [14] is HIV-1 JRCSF envelope glycoprotein (Env) on virus (HIV-1, clade B, isolate JRCSF) (UniProt P20871).
Assay [15] addresses HIV-1 92UG024 envelope glycoprotein (Env) (HIV-1).
The target of assay [16] is HIV-1 APV13 envelope glycoprotein (Env) (HIV-1).
Assay [17] concerns the target HIV-1 NL43 envelope glycoprotein (Env) (HIV-1).
Assay [18] deals with HIV-1 JR-CSF Env N339A (HIV-1 isolate JR-CSF) (UniProt P20871).
Assay [19] deals with HIV-1 JR-CSF Env T319A (HIV-1 (isolate JR-CSF, clade B)) (UniProt P20871).
The target in assay [20] is HIV-1 envelope glycoprotein (Env) of isolate 92BR020 (HIV-1).
The target of assay [21] is HIV-1 envelope glycoprotein (Env) of isolate APV13 (HIV-1).
The target in assay [22] is HIV-1 envelope glycoprotein (Env) of isolate APV6 (HIV-1).
Assay [23] has as its target HIV-1 envelope glycoprotein (Env) of isolate JRCSF (HIV-1) (UniProt P20871).
Assay [24] addresses HIV-1 92BR020 Env (pseudovirus) (HIV-1).
The target in assay [25] is HIV-1 93IN905 Env (pseudovirus) (HIV-1).
For assay [26], the target named is HIV-1 94UG103 Env (pseudovirus) (HIV-1).
The target in assay [27] is HIV-1 JRFL Env (pseudovirus) (HIV-1).
The target of assay [28] is HIV-1 Env of isolate 93IN905 (clade C) (HIV-1).
In assay [29] the target is HIV-1 Env of isolate MGRM-D-018 (clade D) (HIV-1).

Chain of 5329_C19 (PGT-136) (antibody) (VH): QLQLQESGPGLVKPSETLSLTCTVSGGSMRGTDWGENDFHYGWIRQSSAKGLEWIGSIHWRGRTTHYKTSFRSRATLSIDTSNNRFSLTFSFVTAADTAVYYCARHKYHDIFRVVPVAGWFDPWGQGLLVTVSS
Chain of 5329_C19 (PGT-136) (antibody) (VL): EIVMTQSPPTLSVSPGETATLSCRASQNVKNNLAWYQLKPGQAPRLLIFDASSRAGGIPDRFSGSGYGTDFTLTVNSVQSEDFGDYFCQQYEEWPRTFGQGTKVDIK

On to 4858_P08 (PGT-123) (antibody), for which, in assay [1], the IC50, pseudovirus neutralization was determined as 0.0038 µg/mL; the IC80 (pseudovirus neutralization) came out at 0.0106 µg/mL; the IC90 (pseudovirus neutralization) was found to be 0.0194 µg/mL; the IC95 (pseudovirus neutralization) amounted to 0.0343 µg/mL. In assay [2], the IC50, pseudovirus neutralization was above 10 µg/mL; the IC80 (pseudovirus neutralization) was above 10 µg/mL; the IC90 (pseudovirus neutralization) was above 10 µg/mL; the IC95 (pseudovirus neutralization) is above 10 µg/mL. In assay [3], this substance returned an IC50, pseudovirus neutralization above 10 µg/mL; an IC80 (pseudovirus neutralization) above 10 µg/mL; an IC90 (pseudovirus neutralization) above 10 µg/mL; an IC95 (pseudovirus neutralization) above 10 µg/mL. Besides, in assay [4], the Fold IC50 increase relative to wild-type was found to be 0.3 fold. Besides, in assay [5], the IC50, pseudovirus neutralization is 0.104 µg/mL; the IC80 (pseudovirus neutralization) turned out to be 1.28 µg/mL; the IC90 (pseudovirus neutralization) amounted to 6.38 µg/mL; the IC95 (pseudovirus neutralization) was above 10 µg/mL.
4838_L06 (PGT-121) (antibody): the Neutralization IC80 in assay [6] amounted to 0.0188 µg/mL; in assay [7], 0.371 µg/mL; in assay [9], 0.0806 µg/mL. The Neutralization IC90 in assay [6] was 0.0361 µg/mL; in assay [7], 0.799 µg/mL; in assay [8], 0.223 µg/mL; in assay [9], 0.151 µg/mL. Besides, the Neutralization IC95 in [6] came to 0.0671 µg/mL; in assay [7] it was 1.55 µg/mL; in [8] it was 0.417 µg/mL; in assay [9], 0.267 µg/mL.
In turn, PGV04 (antibody) registered an IC50 (µg/mL), pseudovirus neutralization in [10] of 0.112 µg/mL. For the same substance, the IC50 (as a rule, the concentration that gives 50% inhibition) in assay [11] is 0.555 µg/mL.
For 4877_D15 (PGT-122) (antibody), in assay [12], the Neutralization IC80 is 0.0505 µg/mL, the Neutralization IC90 stood at 0.108 µg/mL, the Neutralization IC95 worked out at 0.217 µg/mL and the neutralization IC50 was 0.0138 µg/mL. In assay [13], this substance yielded a Neutralization IC80 of 0.351 µg/mL, a Neutralization IC90 of 0.779 µg/mL, a Neutralization IC95 of 1.55 µg/mL and a neutralization IC50 of 0.0851 µg/mL. In assay [14], this substance returned a Neutralization IC80 of 0.245 µg/mL, a Neutralization IC90 of 0.494 µg/mL, a Neutralization IC95 of 0.926 µg/mL and a neutralization IC50 of 0.0727 µg/mL.
In the case of 5329_C19 (PGT-136) (antibody), in [15], the Neutralization IC80 is 0.619 µg/mL, the Neutralization IC90 came to 1.96 µg/mL, the Neutralization IC95 came to 5.97 µg/mL and the neutralization IC50 was 0.0915 µg/mL. In assay [16], this substance returned a Neutralization IC80 above 10 µg/mL, a Neutralization IC90 above 10 µg/mL, a Neutralization IC95 above 10 µg/mL and a neutralization IC50 above 10 µg/mL. In [17], this substance displayed a Neutralization IC80 above 10 µg/mL, a Neutralization IC90 above 10 µg/mL, a Neutralization IC95 above 10 µg/mL and a neutralization IC50 above 10 µg/mL.
As to 5147_N06 (PGT-130) (antibody), the Fold IC50 increase relative to wild-type in assay [18] was found to be 0.2 fold; in assay [19] it was 1.6 fold.
In [20], 5141_B17 (PGT-126) (antibody) had a Neutralization IC80 of 0.0457 µg/mL, a Neutralization IC90 of 0.0846 µg/mL, a Neutralization IC95 of 0.152 µg/mL and a neutralization IC50 of 0.0163 µg/mL. In assay [21], the Neutralization IC80 stood at 0.0411 µg/mL, the Neutralization IC90 was found to be 0.084 µg/mL, the Neutralization IC95 was determined as 0.162 µg/mL and the neutralization IC50 turned out to be 0.012 µg/mL. Further, in [22], the Neutralization IC80 came to 0.0681 µg/mL, the Neutralization IC90 came to 0.123 µg/mL, the Neutralization IC95 came out at 0.213 µg/mL and the neutralization IC50 was 0.0249 µg/mL. In assay [23], this substance registered a Neutralization IC80 of 0.018 µg/mL, a Neutralization IC90 of 0.0339 µg/mL, a Neutralization IC95 of 0.0608 µg/mL and a neutralization IC50 of 0.0061 µg/mL.
On to 5123_A06 (PGT-125) (antibody), for which the Neutralization by PGT-125, IC50 was 0.0214 µg/mL in [24], 0.0137 µg/mL in assay [25], 0.0124 µg/mL in assay [26] and 0.0156 µg/mL in assay [27]. Moreover, the Neutralization by PGT-125, IC80 was 0.0738 µg/mL in assay [24], 0.0494 µg/mL in [25], 0.0373 µg/mL in [26] and 0.0462 µg/mL in assay [27]. Moreover, the Neutralization by PGT-125, IC90 in [24] is 0.156 µg/mL; in assay [25] it was 0.106 µg/mL; in assay [26] it was 0.071 µg/mL; in assay [27], 0.0873 µg/mL. The Neutralization by PGT-125, IC95 in assay [24] was 0.323 µg/mL; in assay [25], 0.216 µg/mL; in assay [26], 0.129 µg/mL; in assay [27], 0.157 µg/mL.
In assay [28], 1496_C09 (PG9) (TCN-109) (antibody) showed a Neutralization IC80 of 0.308 µg/mL, a Neutralization IC90 of 0.981 µg/mL, a Neutralization IC95 of 3.31 µg/mL and a neutralization IC50 of 0.048 µg/mL. In assay [29], this substance returned a Neutralization IC80 of 0.18 µg/mL, a Neutralization IC90 of 0.43 µg/mL, a Neutralization IC95 of 1.05 µg/mL and a neutralization IC50 of 0.0444 µg/mL.
